Data on one molecule can be found in patent US20060141546A1, “Bacterial test method by glycated label binding” (priority 2002, published 2006).

For one assay, the system named is Group B streptococcus. The assay is described as follows: ALP binding compared to Sf (Table 1). As for the experimental part:
(§1) Bacterial cells ([…] to 10^8 cells/mL) were washed twice with water after centrifugation to separate the cells into a packed pellet from supernatant liquid. The washed cells in pellet form were suspended in 40 μL water and 10 μL of aqueous bovine intestinal alkaline phosphatase (ALP) was added (2 μg or […]). The mixture was left at room temperature for 30 minutes and then centrifuged, after which the bacterial pellets were washed with water 4-5 times (50 μL). All the washing supernatants were combined. A blank without cells was diluted in the same way. The final pellets were suspended in 50 μl water and both supernatants and cell suspensions were assayed for detection of ALP binding using 2.5 μl of 0.005 M para-nitrophenol phosphate (PNPP) in Tris or EPPS buffer at pH 7.5. The hydrolysis of the substrate results in yellow (PNPP) or blue-green (BCIP) color that is directly proportional to the amount of ALP bound to the bacteria. Alkaline phosphatase (ALP) activity was tested using common substrates such as BCIP (bromo-chloro-indolyl-phosphate) forming a blue/green color in Tris buffer, pH 7.5. After 10 minutes at room temperature the samples were read in a plate reader (Biotek Powerwave Absorbance Reader) at a wavelength of 405 nm. The parallel set of bacteria was run without addition of ALP as controls.
(§2) The bacteria used to illustrate the invention represent the extremes of gram positive (S. facaelis) and gram negative (E. coli) bacteria. […] The nature of the difference in the cell walls is greatest between the gram negative and positive forms of bacteria.

In assay [1] the test system is Yeasts including Candida albicans. The assay is described as follows: ALP binding compared to Sf (Table 1). As for the experimental part: as §1, §2
The test system of assay [2] is Staphylococcus aureus & saprophyicus. The assay is described as follows: ALP binding compared to Sf (Table 1). As to the method: as §1, §2
For assay [3], the system named is Coagulase negative staphylococcus sp. The assay is described as follows: ALP binding compared to Sf (Table 1). As to the method:
as §1, §2

A further assay deals with Streptococcus viridans. Put plainly: ALP binding compared to Sf (Table 1). As for the experimental part:
as §1, §2

The subject of another assay is Enterococcus sp. Put plainly: ALP binding compared to Sf (Table 1). As to the method: as §1, §2
A further assay has as its system Lactobacillus. The assay is described as follows: ALP binding compared to Sf (Table 1). As to the method: as §1, §2
Another assay concerns bacteria. Put plainly: Saturation binding / Scatchard analysis of glycoprotein binding to bacteria. The following applies: ALP to bacteria. An excerpt:
There are several methods used to measure binding affinity. The methods of Lineweaver-Burke and Eadie-Hofstee are most popular. The data is used to create a Scatchard plot, where the X axis is the glycoprotein bound and the Y axis is glycoprotein bound divided by the free glycoprotein. From this graph the number of binding sites (also called Bmax, receptor number) is the X intercept and binding constant (also called affinity constant, Kd, or the equilibrium dissociation constant) is the negative reciprocal of the slope. Changes in slope reflect changes in the nature of binding sites and are often used to separate high affinity binding from low affinity binding sites. Commercially available software (GraphPad software Inc) exist to perform this analysis. Only high affinity binding was used in the instant experiments.
Experimentally, saturation binding experiments are used measure glycoprotein binding at equilibrium at various concentrations of the glycoprotein. The saturation curve is a first constructed to plot the concentration of glycoprotein ligand on the X axis versus the all glycoprotein bound on the cell expressed as concentration of glycoprotein bound/number of bacteria cells on the Y axis. […] This same data is next plotted as a Scatchard plot with the number of binding sites and binding constants determined for the pairs of glycoprotein and bacteria tested. […]

The test system of assay [4] is gram negative and positive bacteria. Put plainly: Bacteria assay by binding of intestinal ALP, all strains (Example 1). The following applies: for ALP binding to bacterial strains tested: FIG. 8, Table 1. As for the experimental part:
as §1, §2

B1: ALP: bovine intestinal alkaline phosphatase, glycoprotein enzyme that binds bacteria and serves as label (protein, UniProt P19111 20-506, looked up)
Intestinal-type alkaline …: LVPVEEEDPAFWNRQAAQALDVAKKLQPIQTAAKNVILFLGDGMGVPTVTATRILKGQMNGKLGPETPLAMDQFPYVALSKTYNVDRQVPDSAGTATAYLCGVKGNYRTIGVSAAARYNQCKTTRGNEVTSVMNRAKKAGKSVGVVTTTRVQHASPAGAYAHTVNRNWYSDADLPADAQMNGCQDIAAQLVNNMDIDVILGGGRKYMFPVGTPDPEYPDDASVNGVRKRKQNLVQAWQAKHQGAQYVWNRTALLQAADDSSVTHLMGLFEPADMKYNVQQDHTKDPTLQEMTEVALRVVSRNPRGFYLFVEGGRIDHGHHDDKAYMALTEAGMFDNAIAKANELTSELDTLILVTADHSHVFSFGGYTLRGTSIFGLAPSKALDSKSYTSILYGNGPGYALGGGSRPDVNDSTSEDPSYQQQAAVPQASETHGGEDVAVFARGPQAHLVHGVEEETFVAHIMAFAGCVEPYTDCNLPAPTTATSIPD
Take B1: the “ALP binding relative to sf.” value in the assay on Group B streptococcus was 96%; in assay [1], 93%; in assay [2], 100%; in assay [3], 88%; in the assay on Streptococcus viridans it was 102%; in the assay with Enterococcus sp., 100%. Also, the “ALP binding relative to sf.” value in the assay on Lactobacillus came out at 100%. The binding constant with bacteria (Scatchard analysis, high affinity binding) is listed as 5×10^+6. For the same molecule, the “number of binding sites” value in the assay on bacteria (estimated from the Scatchard analysis) is on record as 590. Besides, the “ALP binding to bacterial strains tested” value in [4] is “binding occurred to all other gram negative and positive bacteria”; in [4] (listed as intestinal ALP), “binding to all bacterial strains tested”. For the same molecule, the “amount of ALP bound or activity generated versus amount of bacteria cells” value in [4] (FIG. 9) is “directly proportional to the amount of bacteria cells present”. The “difference of ALP binding between strains relative to S. facaelis or E. coli” value in [4] (changes of strain among gram negative and positive bacteria) was at most 12%.
